Columns and labels:
[1] = target: NF-κB RelA (p65) (UniProt Q04206 1-551); assay: fluorescence anisotropy
[2] = target: FOXO3 (UniProt O43524 1-673); assay: fluorescence anisotropy
Sequence of FOXO3 (O43524 whole entry): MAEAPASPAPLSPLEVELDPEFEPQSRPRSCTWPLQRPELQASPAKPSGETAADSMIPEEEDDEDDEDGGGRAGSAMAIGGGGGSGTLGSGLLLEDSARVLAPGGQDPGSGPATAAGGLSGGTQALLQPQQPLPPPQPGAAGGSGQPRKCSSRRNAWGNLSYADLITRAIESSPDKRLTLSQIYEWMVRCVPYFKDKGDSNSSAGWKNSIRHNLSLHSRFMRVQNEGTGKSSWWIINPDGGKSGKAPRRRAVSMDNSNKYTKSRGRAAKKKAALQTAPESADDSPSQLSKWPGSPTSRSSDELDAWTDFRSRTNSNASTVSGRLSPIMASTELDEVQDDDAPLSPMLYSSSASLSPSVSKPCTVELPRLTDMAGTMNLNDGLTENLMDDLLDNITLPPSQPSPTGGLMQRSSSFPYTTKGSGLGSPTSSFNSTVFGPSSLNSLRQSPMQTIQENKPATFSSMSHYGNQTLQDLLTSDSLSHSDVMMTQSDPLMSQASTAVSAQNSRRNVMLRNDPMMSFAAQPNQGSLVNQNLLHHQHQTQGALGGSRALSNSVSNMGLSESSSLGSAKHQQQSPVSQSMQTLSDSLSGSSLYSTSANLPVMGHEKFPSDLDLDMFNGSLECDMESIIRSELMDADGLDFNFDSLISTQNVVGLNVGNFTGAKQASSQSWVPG

Sequence of NF-κB RelA (p65) (Q04206 whole entry): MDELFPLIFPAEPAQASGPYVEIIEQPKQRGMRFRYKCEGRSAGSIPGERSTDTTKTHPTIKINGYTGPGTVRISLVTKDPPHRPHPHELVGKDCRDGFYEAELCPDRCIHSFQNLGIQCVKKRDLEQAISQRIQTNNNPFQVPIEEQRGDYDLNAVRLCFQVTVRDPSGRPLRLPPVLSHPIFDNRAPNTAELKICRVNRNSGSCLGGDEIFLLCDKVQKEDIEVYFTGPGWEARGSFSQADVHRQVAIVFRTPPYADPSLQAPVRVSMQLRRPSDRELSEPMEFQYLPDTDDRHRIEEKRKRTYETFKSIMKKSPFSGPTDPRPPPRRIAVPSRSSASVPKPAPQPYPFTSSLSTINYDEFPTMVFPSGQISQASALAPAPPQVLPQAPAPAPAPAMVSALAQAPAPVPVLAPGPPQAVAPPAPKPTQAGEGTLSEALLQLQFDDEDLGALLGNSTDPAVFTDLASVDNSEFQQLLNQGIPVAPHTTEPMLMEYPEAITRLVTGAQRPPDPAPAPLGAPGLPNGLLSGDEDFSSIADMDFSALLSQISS

B1: FOXO3 consensus duplex (dsDNA)
DNA 1: CGCATCCTATGTAAACAACTCGAGTC
DNA 2: GACTCGAGTTGTTTACATAGGATGCG
- binding result [1]: no binding
- binding result [2]: binds

— paper PMC4670825
